Source: US20260109980A1 (TRUSTEES OF COLUMBIA UNIVERSITY IN THE CITY OF NEW YORK, published 2026)

B1: Vibrio cholerae Cas6 (enzyme)
chain: not shown
notes: Ribonuclease subunit of Cascade, seen within the TniQ-Cascade cryo-EM structure; also called VchCas6; Csy4
B2: Vibrio cholerae Cas7 (other)
chain: not shown
notes: Six copies stand in Cascade; Cas7.1 is the monomer furthest from Cas8 and next to Cas6, and Cas7.2 is the next one; also called VchCas7; Cas7.1

Assays:
[1] = molecular target: B2; experiment: cryo-EM structure
[2] = molecular target: B1; experiment: cryo-EM structure

## B1
[1]
  binding result: binds

## B2
[2]
  binding result: binds
